Data on four substances can be found in PMC5268738, “A sequential multi-target Mps1 phosphorylation cascade promotes spindle checkpoint signaling” (eLife, 2017).

Assay [1] deals with Mad1 CTD (UniProt Q9Y6D9). As to the kind of experiment: peptide-bead pull-down, Coomassie.
The target of the next assay is Cdc20 Cdc20N, 1-170 (UniProt Q12834). As to the kind of experiment: Ni2+ bead pull-down, anti-Mad1 blot. The settings on record: reference: Mad1E–Mad2 wild type; sites T716.
Assay [2] concerns the target Mad1 CTD (UniProt Q9Y6D9). As to the kind of experiment: ITC. The note with it: reference: pT461 peptide; sites S459.
In assay [3] the target is scMad1 CTD (UniProt P40957). As to the kind of experiment: ITC. The note with it: reference: pT455 peptide; sites T453.
In assay [4] the target is scMad1 CTD (UniProt P40957). As to the kind of experiment: peptide-bead pull-down, Coomassie.

Regarding “Bub1 455-477 (from UniProt O43683) pS459-pT461-pT464 peptide”, the “binding against the reference” value with Mad1 CTD [1] (reference: pS459-pT461 peptide, sites T464) is “weaker”.
On to “Mad1 Mad1E (MIM + CTD) (from UniProt Q9Y6D9) Mad1E T716A”, for which the “binding against the reference” value with Cdc20 Cdc20N, 1-170 is recorded as “weaker”.
“Bub1 455-477 (from UniProt O43683) pS459-pT461 peptide”: the “binding against the reference” value with Mad1 CTD [2] was “stronger”; with Mad1 CTD [1] (reference: pT461 peptide, sites S459), “stronger”.
Regarding “scBub1 449-473 (from UniProt P41695) pT453-pT455 peptide”, the “binding against the reference” value is recorded as “same” with scMad1 CTD [3]; “stronger” in the assay with scMad1 CTD [4] (reference: pT453 peptide, sites T455); “same” with scMad1 CTD [4] (reference: pT455 peptide, sites T453).
